Measurements: patent publication US20240293561A1, “BRAIN PERMEABLE MULTIFUNCTIONAL SYSTEM AND USES THEREOF” (NANOCARRY THERAPEUTICS LTD., priority 2021, published 2024)

Assay: Delivery of cisPt&IgG1&Ins-GNPs into mice brain, Au and Pt measured by ICP-OES
Assay type: in vivo, Male BALB/c mice
Details: 8 hours after IV injection, after perfusion
Experimental: Male BALB/c mice were divided into four treatment groups: • Group 1: Anti-IgG1 & insulin-conjugated GNPs (IgG1&Ins-GNPs; n=2) • Group 2: Cisplatin & insulin-conjugated GNPs (CisPt&Ins-GNPs; n=2) • Group 3: Multifuctional GNPs (cisPt&IgG1&Ins-GNPs; n=2) • Group 4: Free cisplatin (n=2)
Mice were injected intravenously with IgG1&Ins-GNPs (200 μl, 25 mg/ml), cisPt&Ins-GNPs (200 μl of 25 mg/ml), cisPt&IgG1&Ins-GNPs (200 μl of 25 mg/ml), or with equivalent amounts of free cisplatin. Eight hours post injection, mice underwent perfusion to remove all the particles residing within the blood vessels. Then, mice brains were extracted and analyzed using ICP-OES to measure the amounts of Au and Pt that penetrated into the brain (FIGS. 6A and 6B, respectively).

Question: Which “amount of Pt within the brain compared with equivalent dose of free cisplatin” value does the source give for “cisPt&Ins-GNPs: GNPs conjugated with insulin and cisplatin; control particle” here?
Answer: The value was “significantly higher”.
